Data taken from US20110123511.

What was measured:
[1] = target: full-length free histone H3 (individual core histone)
[2] = target: GST-fusion histone H3 peptide (residues 1-57), K27R mutant [GST: P08515]
[3] = target: peptide containing H3 residues 1-20
[4] = target: H3 peptide containing residues 15-30
[5] = target: GST-fusion histone H3 peptide (residues 1-57), wild-type

B1: recombinant wild-type vSET expressed in E. coli BL21 (protein)
chain: MFNDRVIVKKSPLGGYGVFARKSFEKGELVEECLCIVRHNDDWGTALEDYLFSRKNMSAMALGFGAIFNHSKDPNARHELTAGLKRMRIFTIKPIAIGEEITISYGDDYWLSRPRLTQN
histone methyltransferase activity [1]: confirming its activity for full-length free H3 and H3 within the nucleosome, but not other core histones | methylation assay (methyl transfer from 14C-methyl-SAM) [2]: The methylation assay showed that vSET was only active when H3 contained K27 | histone methyltransferase activity (core histone H2B): confirming its activity for full-length free H3 and H3 within the nucleosome, but not other core histones | histone methyltransferase activity (core histone H2A): confirming its activity for full-length free H3 and H3 within the nucleosome, but not other core histones | histone methyltransferase activity (core histone H4): confirming its activity for full-length free H3 and H3 within the nucleosome, but not other core histones | methylation activity with H3 peptides (14C-methyl-SAM) [3]: Like vSET, these viral SET proteins only methylated a H3 peptide containing residues 15-30 but not a peptide containing H3 residues 1-20 | methylation activity with H3 peptides (14C-methyl-SAM) [4]: Like vSET, these viral SET proteins only methylated a H3 peptide containing residues 15-30 but not a peptide containing H3 residues 1-20 | methylation assay (methyl transfer from 14C-methyl-SAM) [5]: The methylation assay showed that vSET was only active when H3 contained K27
